Target: p53 wild-type (UniProt P04637)
Experiment: cell_activity
Details: dual luciferase activation in H1299 (p53 null)

Sequence of p53 wild-type (P04637 whole entry): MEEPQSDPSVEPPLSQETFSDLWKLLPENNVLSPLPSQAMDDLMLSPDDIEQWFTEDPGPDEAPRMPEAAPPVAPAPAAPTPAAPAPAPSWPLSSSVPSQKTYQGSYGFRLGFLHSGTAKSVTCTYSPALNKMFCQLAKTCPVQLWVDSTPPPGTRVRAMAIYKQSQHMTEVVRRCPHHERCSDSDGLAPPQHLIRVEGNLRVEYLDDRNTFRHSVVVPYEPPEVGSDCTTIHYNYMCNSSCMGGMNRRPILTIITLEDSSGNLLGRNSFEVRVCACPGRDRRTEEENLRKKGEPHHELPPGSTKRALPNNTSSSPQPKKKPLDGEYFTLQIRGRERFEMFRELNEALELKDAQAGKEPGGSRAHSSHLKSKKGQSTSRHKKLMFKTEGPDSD

Substance: killin promoter 140 bp fragment with p53 site (pGL3-Killin)
- activity: 70 fold
